Results: PMC3649978

Target: EB1 (competitive binding assay, source not named) (UniProt Q61166)
Assay: competitive binding assay; data not shown; p104_(554–593) as competitor of EB1 binding to recombinant p104

Chain of UniProt Q61166 (Q61166 whole entry): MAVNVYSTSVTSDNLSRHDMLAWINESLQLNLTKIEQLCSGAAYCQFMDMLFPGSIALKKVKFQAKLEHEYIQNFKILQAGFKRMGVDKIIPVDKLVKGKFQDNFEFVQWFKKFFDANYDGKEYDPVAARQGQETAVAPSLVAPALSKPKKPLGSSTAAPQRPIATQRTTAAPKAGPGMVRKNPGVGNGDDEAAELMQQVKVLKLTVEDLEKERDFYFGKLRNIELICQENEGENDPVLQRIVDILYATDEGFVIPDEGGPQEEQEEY

“p104_(554–593) (soluble 40 aa fragment of p104; recombinant form GFP-p104_(554–593)) (domain or fragment)” showed a molar excess for 50% inhibition (fold molar excess) of 3.
